The values below come from patent US8329178B2.

What all share (assay): FACS, 293T cells expressing CXCR4 variants
Background: In flow cytometry, cells or beads pass a laser one at a time.

Assay [1] deals with CXCR2/CXCR4 chimera 2442 (human) (UniProt P61073).
The target in assay [2] is CXCR2/CXCR4 chimera 2444b (human) (UniProt P61073).
Assay [3] has as its target CXCR2/CXCR4 chimera 4442 (human) (UniProt P61073).
Assay [4] has as its target human CXCR4 (wild type) (human) (UniProt P61073).
The target in the next assay is ΔN25-CXCR4 (human) (UniProt P61073).
In the next assay the target is ΔN31-CXCR4 (human) (UniProt P61073).

For murine monoclonal antibody 12G5, the binding to cells expressing the variant (+%) worked out at 85.8% in assay [1]; 70.1% in assay [2]; 103% in assay [3]; 100% in assay [4]; 69.2% in the assay with ΔN25-CXCR4 (human); 55.4% in the assay with ΔN31-CXCR4 (human).
